The results in this text go back to patent US20250236673A1 (Ablynx, published 2025).

The target of one experiment is T1, human serum albumin (human, UniProt P02768 25-609).
T1 construct: Immobilised by amine coupling on a C1 chip; also called HSA
Put plainly: SPR on HSA (Example 2; method not restated, as Example 1).

A further experiment addresses soluble human TNFα (human, UniProt P01375 77-233). Nature of the experiment: cell-based or functional assay.

Several values for one entry are separate records, joined by “and”; a condition that tells them apart may be missing. Equal values may be shown once.

T1 sequence (P02768 25-609 limits assumed): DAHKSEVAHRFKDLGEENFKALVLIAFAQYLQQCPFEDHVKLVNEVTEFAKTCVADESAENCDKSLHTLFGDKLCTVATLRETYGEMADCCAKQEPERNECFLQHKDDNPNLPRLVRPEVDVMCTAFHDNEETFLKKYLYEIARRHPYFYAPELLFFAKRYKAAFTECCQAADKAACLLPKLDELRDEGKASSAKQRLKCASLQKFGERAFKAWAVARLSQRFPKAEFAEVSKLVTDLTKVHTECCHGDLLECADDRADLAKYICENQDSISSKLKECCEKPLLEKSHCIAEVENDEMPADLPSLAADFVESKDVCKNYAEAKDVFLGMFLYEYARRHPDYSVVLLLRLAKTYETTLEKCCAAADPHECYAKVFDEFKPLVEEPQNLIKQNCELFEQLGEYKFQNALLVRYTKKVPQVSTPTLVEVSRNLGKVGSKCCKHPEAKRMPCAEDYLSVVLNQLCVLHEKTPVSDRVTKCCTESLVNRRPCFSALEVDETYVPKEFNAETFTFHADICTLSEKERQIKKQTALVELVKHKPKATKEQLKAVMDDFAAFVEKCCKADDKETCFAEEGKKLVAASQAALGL
Sequence of soluble human TNFα (P01375 77-233 limits assumed): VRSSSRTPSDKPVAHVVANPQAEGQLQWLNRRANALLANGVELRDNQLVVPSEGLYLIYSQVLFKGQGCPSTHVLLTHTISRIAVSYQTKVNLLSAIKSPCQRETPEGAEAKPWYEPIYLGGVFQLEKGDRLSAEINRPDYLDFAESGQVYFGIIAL

B1: T039400045 (VHH)
VHH: EVQLVESGGGVVQPGGSLRLSCAASGFTFRSFGMSWVRQAPGRGKEWVSSISGSGSDTLYADSVRGRFTISRDNSRNTLYLQMNSLRPEDTALYYCTIGGSLSRSSQGTLVTVSS
notes: Single lysine at 45; also called HIS6-ENLYFQS-5GS-HSA006A06(K43R, P45K,K64R, K75R, K83R)
As usually defined, the Kd is the constant that tells how readily two partners part at equilibrium. The term koff denotes the first-order rate constant of dissociation. The low end stands for slow dissociation, the high end for fast dissociation. What is called kon is a measure of how fast the partners come together. Low readings indicate slow association, high ones fast association. In the experiment with human serum albumin, B1 displayed a Kd of 8.59 nM, a dissociation rate constant (koff) of 0.00263 s⁻¹ and a kon of 306000 M⁻¹ s⁻¹.

B2: T039400044 (VHH)
VHH: EVQLVESGGGVVQPGGSLRLSCAASGFTFRSFGMSWVRQAPGRGPEWVSSISGSGSDTLYADSVRGRFTISRDNSRNTLYLQMNSLRPEDTALYYCTIGGSLSRSSKGTLVTVSS
notes: also called HIS6-ENLYFQS-5GS-HSA006A06(K43R, K64R, K75R, K83R, Q105K)
In the experiment with human serum albumin, B2 showed a Kd of 6.42 nM, a koff of 0.00229 s⁻¹ and a kon of 357000 M⁻¹ s⁻¹.

B3: T039400041 (VHH)
VHH: EVQLVESGGGVVQPGGSLRLSCAASGFTFRSFGMSWVRQAPGRGPEWVSSISGSGSDTLYADSVKGRFTISRDNSRNTLYLQMNSLRPEDTALYYCTIGGSLSRSSQGTLVTVSS
notes: Single lysine at 64; also called HIS6-ENLYFQS-5GS-HSA006A06(K43R, K75R, K83R)
In the experiment with human serum albumin, B3 returned a Kd of 8.01 nM, a koff of 0.00232 s⁻¹ and an on-rate (kon) of 289000 M⁻¹ s⁻¹.

B4: T031200256 (VHH)
VHH: DVQLVESGGGVVQPGGSLRLSCTASGFTFSTADMGWFRQAPGKGREFVARISGIDGTTYYDEPVKGRFTISRDKSKNTVYLQMNSLKPEDTALYYCRSPRYADQWSAYDYWGQGTLVTVSS
In the case of B4, in the experiment with soluble human TNFα, the “IC50, inhibition of human TNFα-induced NFkB activation (HEK293_NFkB-NLucP Nano luciferase reporter)” value (from here on “IC50, inhibition”) was 4.3e-11 M (inferred; column head prints 'Average of ka (1/Ms)').

B5: T031200260 (VHH)
VHH: DVQLVESGGGVVQPGGSLKLSCTASGFTFSTADMGWFRQAPGKGREFVARISGIDGTTYYDEPVKGRFTISRDKSKNTVYLQMNSLKPEDTALYYCRSPRYADQWSAYDYWGKGTLVTVSS
B5: the “IC50, inhibition” value with soluble human TNFα was 5.34e-11 M (inferred; column head prints 'Average of ka (1/Ms)').

B6: A016600058 (VHH)
VHH: DVQLVESGGGVVQPGGSLRLSCTASGFTFSTADMGWFRQAPGKGREFVARISGIDGTTYYDEPVKGRFTISRDNSKNTVYLQMNSLRPEDTALYYCRSPRYADQWSAYDYWGQGTLVTVSS
As for B6, in the experiment with soluble human TNFα, the “IC50, inhibition” value was 3.86e-11 M (inferred; column head prints 'Average of ka (1/Ms)') and 2.97e-11 M (inferred; column head prints 'Average of ka (1/Ms)').

B7: T031200263 (VHH)
VHH: DVQLVESGGGVVQPGGSLKLSCTASGFTFSTADMGWFRQAPGKGKEFVARISGIDGTTYYDEPVKGRFTISKDKSKNTVYLQMNSLKPEDTALYYCRSPRYADQWSAYDYWGKGTLVTVSS
Turning to B7, in the experiment with soluble human TNFα, the “IC50, inhibition” value was 1.92e-10 M (inferred; column head prints 'Average of ka (1/Ms)').

B8: T031200261 (VHH)
VHH: DVQLVESGGGVVQPGGSLKLSCTASGFTFSTADMGWFRQAPGKGREFVARISGIDGTTYYDEPVKGRFTISKDKSKNTVYLQMNSLKPEDTALYYCRSPRYADQWSAYDYWGKGTLVTVSS
With B8, the “IC50, inhibition” value with soluble human TNFα is 1.91e-10 M (inferred; column head prints 'Average of ka (1/Ms)').

B9: T031200262 (VHH)
VHH: DVQLVESGGGVVQPGGSLKLSCTASGFTFSTADMGWFRQAPGKGKEFVARISGIDGTTYYDEPVKGRFTISRDKSKNTVYLQMNSLKPEDTALYYCRSPRYADQWSAYDYWGKGTLVTVSS
As for B9, in the experiment with soluble human TNFα, the “IC50, inhibition” value is 6.43e-11 M (inferred; column head prints 'Average of ka (1/Ms)').

B10: T031200258 (VHH)
VHH: DVQLVESGGGVVQPGGSLKLSCTASGFTFSTADMGWFRQAPGKGREFVARISGIDGTTYYDEPVKGRFTISRDNSKNTVYLQMNSLKPEDTALYYCRSPRYADQWSAYDYWGKGTLVTVSS
Regarding B10, the “IC50, inhibition” value with soluble human TNFα was 6.09e-11 M (inferred; column head prints 'Average of ka (1/Ms)').

B11: T031200257 (VHH)
VHH: DVQLVESGGGVVQPGGSLKLSCTASGFTFSTADMGWFRQAPGKGREFVARISGIDGTTYYDEPVKGRFTISRDKSKNTVYLQMNSLKPEDTALYYCRSPRYADQWSAYDYWGQGTLVTVSS
As for B11, in the experiment with soluble human TNFα, the “IC50, inhibition” value is 4.93e-11 M (inferred; column head prints 'Average of ka (1/Ms)').

B12: T031200259 (VHH)
VHH: DVQLVESGGGVVQPGGSLKLSCTASGFTFSTADMGWFRQAPGKGREFVARISGIDGTTYYDEPVKGRFTISKDNSKNTVYLQMNSLKPEDTALYYCRSPRYADQWSAYDYWGKGTLVTVSS
Take B12: the “IC50, inhibition” value with soluble human TNFα was 4.82e-11 M (inferred; column head prints 'Average of ka (1/Ms)').
